Reference: US20240026037A1
Substitutions are numbered along the chain they refer to. Each block holds one binder with its values, some of them ahead of it.

Tests used:
[1] = molecular target: Human GPA33 on GPA33+ colorectal cancer cell lines (Colo 205, LS 174T, SW 1222) (human) (UniProt Q99795); test: cell binding to LS174T Luc cells; IgG format
[2] = molecular target: Human GPA33 on GPA33+ colorectal cancer cell lines (Colo 205, LS 174T, SW 1222) (human) (UniProt Q99795); test: cell binding to SW1222 Luc cells; IgG format
[3] = molecular target: Human GPA33 (recombinant protein, Novoprotein) (human) (UniProt Q99795); test: SPR (Biacore), binding to GPA33 protein; IgG format
Chain of Human GPA33 (recombinant protein, Novoprotein) (human) (Q99795 22-235 limits assumed): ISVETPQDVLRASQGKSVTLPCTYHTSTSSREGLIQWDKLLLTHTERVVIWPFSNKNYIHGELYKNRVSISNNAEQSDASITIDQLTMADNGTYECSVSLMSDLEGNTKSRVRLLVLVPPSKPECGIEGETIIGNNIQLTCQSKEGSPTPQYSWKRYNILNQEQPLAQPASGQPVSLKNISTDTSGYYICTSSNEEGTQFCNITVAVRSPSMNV

Chain of Human GPA33 on GPA33+ colorectal cancer cell lines (Colo 205, LS 174T, SW 1222) (human) (Q99795 22-319 limits assumed): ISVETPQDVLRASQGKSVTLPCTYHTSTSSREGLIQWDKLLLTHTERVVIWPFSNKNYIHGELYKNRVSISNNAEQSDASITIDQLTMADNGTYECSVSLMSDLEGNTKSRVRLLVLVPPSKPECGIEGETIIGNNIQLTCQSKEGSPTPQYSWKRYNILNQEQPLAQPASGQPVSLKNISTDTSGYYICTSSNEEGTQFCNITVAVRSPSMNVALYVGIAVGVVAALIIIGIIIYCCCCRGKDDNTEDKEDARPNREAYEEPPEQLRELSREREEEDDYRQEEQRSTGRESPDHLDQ

EC50 [1]: 1.12 µg/mL | EC50 [2]: 1.51 µg/mL | Kd [3]: 0.87 nM
B1: G3A_VK1+VH1 (antibody, IgG1, V domains shown, part only)
VH: EVQLVESGGGLVKPGGSLRLSCAASGFAFSTYDMSWVRQAPGKGLEWVSTISSGGSYTYYADSVKGRFTISRDNAKNSLYLQMNSLRAEDTAVYYCAPTTVVPFAYWGQGTLVTVSA
VL: DIQMTQSPSSLSASVGDRVTITCKASQNVRTVVAWYQQKPGKAPKRLIYLASNRHTGVPSRFSGSGSGTEFTLTISNLQPEDFATYYCLQHWSYPLTFGSGTKLEVK
modifications: IgG1 constant regions not given

EC50 [1]: 0.381 µg/mL | EC50 [2]: 0.383 µg/mL | Kd [3]: 0.241 nM
B2: G3A_VK3+VH2 (antibody, IgG1, V domains shown, part only)
VH: B1 VH with S49A, A61L, N74S
VL: B1 VL with A13T, R46T, T56S
modifications: IgG1 constant regions not given

EC50 [1]: 1.2 µg/mL | Kd [3]: 5.8 nM
B3: G3A_VK2+VH1 (antibody, IgG1, V domains shown, part only)
VH: B1 VH
VL: B1 VL with A13T, R46T, N53S, R54L, H55Q, T56S, L78V, T85D, Y87F
modifications: IgG1 constant regions not given

EC50 [1]: 1.78 µg/mL | EC50 [2]: 1.32 µg/mL | Kd [3]: 1.49 nM
B4: G3A_VK1+VH3 (antibody, IgG1, V domains shown, part only)
VH: B1 VH with S49A, N74S
VL: B1 VL
modifications: IgG1 constant regions

Kd [3]: 9.54 nM
B5: G3A_VK2+VH2 (antibody, IgG1, V domains shown, part only)
VH: B1 VH with S49A, A61L, N74S
VL: B1 VL with A13T, R46T, N53S, R54L, H55Q, T56S, L78V, T85D, Y87F
modifications: IgG1 constant regions

EC50 [1]: 0.654 µg/mL | EC50 [2]: 0.991 µg/mL | Kd [3]: 1.73 nM
B6: G3A_VK1+VH2 (antibody, IgG1, V domains shown, part only)
VH: B1 VH with S49A, A61L, N74S
VL: B1 VL
modifications: IgG1 constant regions

EC50 [2]: 1.89 µg/mL | Kd [3]: 8.39 nM
B7: G3A_VK2+VH3 (antibody, IgG1, V domains shown, part only)
VH: B1 VH with S49A, N74S
VL: B1 VL with A13T, R46T, N53S, R54L, H55Q, T56S, L78V, T85D, Y87F
modifications: IgG1 constant regions not given

EC50 [1]: 0.364 µg/mL | EC50 [2]: 0.314 µg/mL | Kd [3]: 0.229 nM
B8: G3A_VK4+VH2 (antibody, IgG1, V domains shown, part only)
VH: B1 VH with S49A, A61L, N74S
VL: B1 VL with R46T
modifications: IgG1 constant regions not given
